Test results published in patent US20230390362A1, “USE OF TRIGONAL AGONIST HAVING ACTIVITIES TO ALL OF GLUCAGON, GLP-1, AND GIP RECEPTORS IN TREATMENT OF SEQUELAE FOLLOWING RESPIRATORY INFECTIOUS DISEASES” (HANMI PHARM. CO., LTD., priority 2020, published 2023).
Positions of bridges follow the written chain, without caps; N, C: chain ends. Non-standard residues stand in square brackets, D forms with d. No end group written: not given here. *: point of attachment. Acetyl(2-(4-imidazolyl)) = O=C(Cc1c[nH]cn1)*; Aib = CC(C)(N)C(=O)O

T1: human GIP receptor (human, UniProt P48546 22-466)
T1 sequence (looked up): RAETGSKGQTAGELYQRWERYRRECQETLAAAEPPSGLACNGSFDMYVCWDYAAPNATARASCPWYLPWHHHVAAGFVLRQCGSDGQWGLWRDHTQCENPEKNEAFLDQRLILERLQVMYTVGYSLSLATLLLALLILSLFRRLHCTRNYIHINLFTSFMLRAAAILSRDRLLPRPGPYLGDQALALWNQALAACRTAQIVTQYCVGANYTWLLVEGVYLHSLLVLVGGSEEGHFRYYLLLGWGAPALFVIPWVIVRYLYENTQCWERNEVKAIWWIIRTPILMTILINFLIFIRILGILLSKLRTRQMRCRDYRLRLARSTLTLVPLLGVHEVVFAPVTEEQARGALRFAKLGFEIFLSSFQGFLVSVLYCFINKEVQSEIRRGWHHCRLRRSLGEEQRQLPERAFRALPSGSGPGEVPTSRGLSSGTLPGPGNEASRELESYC


What was measured:
Assay in all cases: cell-based or functional assay
[1] = biological target: T1, human GIP receptor
[2] = biological target: human GLP-1 receptor (human, UniProt P43220 24-463)
[3] = biological target: human GCG receptor (human, UniProt P47871 26-477)
Chain of human GCG receptor (P47871 26-477): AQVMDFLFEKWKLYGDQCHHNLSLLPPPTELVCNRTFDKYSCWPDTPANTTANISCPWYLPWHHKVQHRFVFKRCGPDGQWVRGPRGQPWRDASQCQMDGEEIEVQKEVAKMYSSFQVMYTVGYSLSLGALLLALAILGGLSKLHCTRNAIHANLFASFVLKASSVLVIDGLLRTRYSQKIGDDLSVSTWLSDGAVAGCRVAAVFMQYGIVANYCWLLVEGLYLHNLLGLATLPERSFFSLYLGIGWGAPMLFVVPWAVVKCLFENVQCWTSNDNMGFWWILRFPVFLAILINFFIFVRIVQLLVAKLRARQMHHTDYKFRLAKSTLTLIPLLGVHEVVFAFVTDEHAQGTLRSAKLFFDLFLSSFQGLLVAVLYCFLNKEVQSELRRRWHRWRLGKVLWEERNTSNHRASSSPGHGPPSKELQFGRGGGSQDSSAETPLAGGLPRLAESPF

Binder	In vitro activity relative to native peptide (%), vs. GIP (cAMP EC50) [1]	In vitro activity relative to native peptide (%), vs. GLP-1 (cAMP EC50) [2]	In vitro activity relative to native peptide (%), vs. Glucagon (cAMP EC50) [3]
Y[Aib]QGTFTSDYSKYLDECAAKDFVQWLLDHHPSSGQPPPS (bridge 16-20) [trigonal agonist of SEQ ID NO: 67]	39.8%	28.5%	46.2%
Y[Aib]QGTFTSDYSKCLDERAAKEFVQWLLDHHPSSGQPPPS (bridge 16-20) [trigonal agonist of SEQ ID NO: 69]	62.8%	24.3%	9.6%
{Acetyl(2-(4-imidazolyl))}-[Aib]QGTFTSDKSKYLDERAAQDFVQWLLDGGPSSGAPPPS [trigonal agonist of SEQ ID NO: 62]	< 0.1%	5.2%	< 0.1%
Y[Aib]QGTFTSDYSKYLDEKAAKDFVQWLLDHHPSSGQPPPSC (bridge 16-20) [trigonal agonist of SEQ ID NO: 77]	35.5%	38.7%	12.2%
Y[Aib]QGTFTSDYSKYLDECAAKEFVQWLLDHHPSSGQPPPS (bridge 16-20) [trigonal agonist of SEQ ID NO: 64]	92.9%	64.6%	60.1%
H[Aib]QGTFTSDYSKYLDEKRQKEFVQWLLNTKC (bridge 16-20) [trigonal agonist of SEQ ID NO: 58]	0.2%	39.1%	2.6%
H[Aib]QGTFTSDVSKYLDGQAAQEFVAWLLKGC [trigonal agonist of SEQ ID NO: 8]	< 0.1%	14.2%	0.1%
Y[Aib]QGTFTSDYSKYLDECRAKDFVQWLLDHHPSSGQPPPS (bridge 16-20) [trigonal agonist of SEQ ID NO: 66]	17.2%	15.8%	172%
H[Aib]QGTFTSDYSIAMDEIHQKDFVNWLLNTC (bridge 16-20) [trigonal agonist of SEQ ID NO: 57]	0.3%	11.7%	< 0.1%
Y[Aib]QGTFTSDYSKCLDEKRAKDFVQWLLDHHPSSGQPPPS (bridge 16-20) [trigonal agonist of SEQ ID NO: 70]	64.4%	15.1%	71.3%
H[Aib]EGTFTSDYSIAMDEIHQKDFVNWLLAQKC (bridge 16-20) [trigonal agonist of SEQ ID NO: 79]	1.4%	41.5%	4.9%
Y[Aib]QGTFTSDYSKYLDEKAAKEFVQWLLDHHPSSGQPPPSC (bridge 16-20) [trigonal agonist of SEQ ID NO: 75]	18%	35.1%	8.5%
H[Aib]QGTFTSDYSKYLDEKRQKEFVNWLLAQC (bridge 16-20) [trigonal agonist of SEQ ID NO: 56]	0.8%	57.9%	4.9%
H[Aib]QGTFTSDYSKCLDEKRAKEFVQWLLDHHPSSGQPPPS (bridge 16-20) [trigonal agonist of SEQ ID NO: 65]	11.6%	95.4%	25.2%
Y[Aib]QGTFTSDYSKYLDEKRAKDFVQWLLDHHPSSGQPPPSC (bridge 16-20) [trigonal agonist of SEQ ID NO: 76]	11.7%	10.3%	47.6%
{Acetyl(2-(4-imidazolyl))}-[Aib]QGTFTSDCSKYLDERAAQDFVQWLLDGGPSSGAPPPS [trigonal agonist of SEQ ID NO: 63]	< 0.1%	15.3%	< 0.1%
H[Aib]QGTFTSDVSKYLDGQAAKEFVAWLLKGC [trigonal agonist of SEQ ID NO: 7]	< 0.1%	13.7%	< 0.1%
{Acetyl(2-(4-imidazolyl))}-[Aib]QGTFTSDYSIAMDEIACKDFVNWLLNTK (bridge 15-19) [trigonal agonist of SEQ ID NO: 61]	2.8%	59.8%	< 0.1%
Y[Aib]QGTFTSDCSKYLDERAAKDFVQWLLDHHPSSGQPPPS (bridge 16-20) [trigonal agonist of SEQ ID NO: 72]	1.6%	11.5%	1%
{Acetyl(2-(4-imidazolyl))}-[Aib]QGTFTSDYSICMDEKHQKDFVNWLLNTK (bridge 15-19) [trigonal agonist of SEQ ID NO: 59]	4%	40.3%	< 0.1%
Y[Aib]QGTFTSDYSKCLDEKAAKEFVQWLLDHHPSSGQPPPS (bridge 16-20) [trigonal agonist of SEQ ID NO: 68]	107%	27.9%	8.8%
{Acetyl(2-(4-imidazolyl))}-[Aib]QGTFTSDYSIAMDEKHCKDFVNWLLNTK (bridge 15-19) [trigonal agonist of SEQ ID NO: 60]	8.2%	106%	< 0.1%
Y[Aib]QGTFTSDYSKYLDERACKDFVQWLLDHHPSSGQPPPS (bridge 16-20) [trigonal agonist of SEQ ID NO: 71]	94.7%	90.1%	12.7%
{Acetyl(2-(4-imidazolyl))}-[Aib]QGTFTSDYSKCLDEKRAKEFVQWLLDHHPSSGQPPPS (bridge 15-19) [trigonal agonist of SEQ ID NO: 74]	1%	12.9%	0.9%
{Acetyl(2-(4-imidazolyl))}-[Aib]QGTFTSDYSKYLDECRAKEFVQWLLDHHPSSGQPPPS (bridge 15-19) [trigonal agonist of SEQ ID NO: 73]	3%	22.6%	5.4%
